± gives the half width of the 95% confidence interval.
What was measured:
[1] = folding stability dG unfold from trypsin proteolysis; higher = more stable
Summary of the method: (§1)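 How resistant each design was to proteolysis was captured as K50, inferred by Bayesian fitting of sequencing counts. Unfolding free energy was then derived relative to a sequence-predicted unfolded-state K50 and a shared folded-state K50, per protease or combined. Digestion used trypsin and chymotrypsin at 11 threefold-diluted concentrations plus a no-protease condition, on mini-proteins under 80 residues without cysteine in a PA-tagged cDNA display construct. Designs were kept only when AlphaFold2 dimer inter-PAE was above 15.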

[2] = folding stability dG unfold from chymotrypsin proteolysis; higher = more stable
Summary of the method: as §1

[3] = folding stability dG unfold (combined trypsin and chymotrypsin); higher = more stable
Summary of the method: as §1

Row | Sequence | folding stability dG unfold [1] | folding stability dG unfold [2] | folding stability dG unfold [3]
1 | SAGGSAGGSAGMYVITIKLPSGEVIKIKTDPKNPEEAIKKLEPQYPPAEFEVKEVPENEISAGGSAGGSAGG [r11_103_JUSTAS] | 0.633 ± 0.041 kcal/mol | -0.198 ± 0.26 kcal/mol | 0.254 ± 0.18 kcal/mol
2 | SAGGSSGSIDRVELLSFDPEKGIALVRFPSFGSIQVIPIPPGKNSLKVKVINKNGEPFEFTFSLPLSAGGSA [r2_132_TrMRF] | 2.82 ± 0.082 kcal/mol | 3.1 ± 0.043 kcal/mol | 3 ± 0.07 kcal/mol
3 | SAGGSAGGSAGKKKTITIKIPGMSKEEIAKLIKEKFGPNVKITEIKENKDNLLEITVEVESAGGSAGGSAGG [r11_580_TrROS_Hall] | 2.79 ± 0.22 kcal/mol | 2.79 ± 0.19 kcal/mol | 2.99 ± 0.24 kcal/mol
4 | SAGGSAGGSAGGMIRIENPGNGEPRPIKPNDLEDILDNFPGPMRIETGGGEKEVPAKDISAGGSAGGSAGGS [r10_839_TrROS] | -0.528 ± 0.13 kcal/mol | 0.052 ± 0.079 kcal/mol | -0.0618 ± 0.21 kcal/mol
5 | SAGGMKITTKDGSTITVETEPGKVTITIKPPGDGSTTTLPFPAPSEEEGIEAAIKKIEEEGNVEEIELSAGG [r13_579_JUSTAS] | 0.064 ± 0.1 kcal/mol | 0.591 ± 0.1 kcal/mol | 0.491 ± 0.3 kcal/mol
6 | SAGGSAGGSAKKYVLLVTYRHPENGETRTVLVEVETEEEVERAVKELAPPEFDEVKVYVLPASAGGSAGGSA [r18_258_TrMRF] | 2.83 ± 0.15 kcal/mol | 2.79 ± 0.046 kcal/mol | 2.83 ± 0.12 kcal/mol
7 | SAGGSAMTYTITLKTPGSQSLELSLDEKLKLLSQTIDPNTGVTTLTLEGDPEEAKKLEQEIKEKLASAGGSA [r15_662_JUSTAS] | 1.56 ± 0.059 kcal/mol | 1.66 ± 0.11 kcal/mol | 1.56 ± 0.17 kcal/mol
8 | SAGGSAGGSAGGTLEAIKELAKDMPPGDKNIPIKIPDGKPYTIDVEMDPDGKMEIDIEPSAGGSAGGSAGGS [r10_1017_TrROS] | 1.19 ± 0.041 kcal/mol | -0.634 ± 0.86 kcal/mol | 0.466 ± 0.2 kcal/mol
9 | SAMYEPAEFSFTLPNGEKIHITAPKNPNTDEPIVSITIYRKLPDGNTVSFTITVKSSDIDEIIEKLGIKSAG [r14_416_TrMRF] | 3.39 ± 0.095 kcal/mol | 3.74 ± 0.11 kcal/mol | 3.67 ± 0.32 kcal/mol
10 | SAGGSAGGSAGSIGFDSLEEAEKAIEEARRNNVPLTIELRLPDGSTLRIPVDLEIPEDDPSAGGSAGGSAGG [r17_462_TrMRF] | 1.7 ± 0.056 kcal/mol | 1.19 ± 0.037 kcal/mol | 1.46 ± 0.12 kcal/mol
11 | SMYRIRVKIKIKNPKTGKVIELPELEGMSLEEVLEIAKELKEKFPGAEVEVEIVEVEPLPPLTEEQLKKLSA [r9_421_TrROS_Hall] | 1.91 ± 0.069 kcal/mol | 2.33 ± 0.083 kcal/mol | 2.11 ± 0.073 kcal/mol
12 | SAGGSAGGSAGGSDDFVLRYRRRVRRKPKEVRLLPNGELVTGWEEEVSTFPVLTHPDDDSAGGSAGGSAGGS [r10_524_TrMRF] | 0.239 ± 0.11 kcal/mol | 0.5 ± 0.065 kcal/mol | 0.448 ± 0.044 kcal/mol
13 | SAGGSAGGSKKKITVKIEEVKLNPETGKLVLVKIKLPDGKELVFKTPEEIENLPGAEFEVYELSAGGSAGGS [r20_192_TrROS_Hall] | 1.53 ± 0.14 kcal/mol | 1.47 ± 0.13 kcal/mol | 1.45 ± 0.27 kcal/mol
14 | SAGGSEGMTVTELVKPPDSDEVLYVATDSAGNTFTLPGSLVKEALENGKTVEAPRPDGTAATLVLRSAGGSA [r2_301_JUSTAS] | 2.25 ± 0.4 kcal/mol | 3.5 ± 0.2 kcal/mol | 3.1 ± 0.34 kcal/mol
15 | SAGGSAGGSAIADEFAEKNPNFQVEVERHTFEMTQYDPDGGWRQHRMFMISITIVPPGDPLSAGGSAGGSAG [r3_358_TrROS] | 2.91 ± 0.19 kcal/mol | 4.07 ± 0.2 kcal/mol | 3.44 ± 0.3 kcal/mol
16 | SAGEKVEITLVVKVEKDEDGRYRLTEEELREIAKALGLDFEVKSVEIERVPGYLVIRVTVDGKEYEFLSAGG [r19_398_TrROS_Hall] | 2.95 ± 0.089 kcal/mol | 3.04 ± 0.033 kcal/mol | 2.98 ± 0.069 kcal/mol
17 | SAGGSAGGSAMWVIRIWFPNGNKRTIPIPPNEKLTAEEILDEFRIPNGREMRILRVEIWPYSAGGSAGGSAG [r3_465_TrROS] | 1.967 ± 0.011 kcal/mol | 2.66 ± 0.034 kcal/mol | 2.43 ± 0.042 kcal/mol
18 | SAGGSYLDEVREKILKEYPLKPGEPKEIEITVPLPSGRTVKIKIPVTVDPKTGKVEAKFEVLEETKESAGGS [r16_634_JUSTAS] | 0.395 ± 0.033 kcal/mol | 1.22 ± 0.028 kcal/mol | 0.934 ± 0.074 kcal/mol
19 | SAGGSAGGSAPLPPLTPEQVKALVEELKKKGYKVKKVTVVEVNGELYVFVEVDGKLYRIKVSAGGSAGGSAG [r3_395_TrROS_Hall] | 3.47 ± 0.069 kcal/mol | 4.47 ± 0.12 kcal/mol | 4.23 ± 0.064 kcal/mol
20 | SAGGPTVVLRVRDADGNLVTVTFDEETKRITVTVVRDGKTRTLTVDMTVDEAIARLRDLFPVEVELVPSAGG [r13_141_TrROS_Hall] | 2.42 ± 0.051 kcal/mol | 3.05 ± 0.014 kcal/mol | 2.83 ± 0.041 kcal/mol
21 | SAGGMPVPVTFPFAGADEVIAFATALEELVNAPVGLTLISPSGEEREVGDPDSIVDEDGFTVRVTVPASAGG [r13_620_TrMRF] | 1.38 ± 0.015 kcal/mol | -0.382 ± 0.16 kcal/mol | 0.921 ± 0.039 kcal/mol

Row | Sequence | folding stability dG unfold [1] | folding stability dG unfold [2] | folding stability dG unfold [3]
22 | SAMKVTIEPLEDGSTVITLDDGTEITFSAPGSGAPILAKVTPLPNTGVVRVDIYHPEGGKLLAPLVVPLSAG [r14_975_TrMRF] | 0.657 ± 0.034 kcal/mol | 0.579 ± 0.094 kcal/mol | 0.734 ± 0.053 kcal/mol
23 | SLPPSLTYTLKLSHPDGSTVTATVFPGGSLRVTVYAPGGVKVAESEYPVDDLEALMKALGIKEVLSMELASA [r9_1107_JUSTAS] | 1.93 ± 0.082 kcal/mol | 2.85 ± 0.071 kcal/mol | 2.67 ± 0.13 kcal/mol
24 | SAGGSAGGSAGKKKIKLLIFDKKTNKLYVVEVELTKDGKIKITKIKEIYEVKPGEKLKLLSAGGSAGGSAGG [r11_750_TrROS_Hall] | 0.981 ± 0.044 kcal/mol | 1.3 ± 0.26 kcal/mol | 1.19 ± 0.25 kcal/mol
25 | SAGGSAGGSASIEVAAPPDATVTITTEITRKLPAGAKLPNGVVASADETLKETVTTTITVLGSAGGSAGGSA [r18_450_JUSTAS] | -0.27 ± 0.29 kcal/mol | 0.817 ± 0.047 kcal/mol | 0.364 ± 0.34 kcal/mol
26 | SALPNLKIEITLNEDGTITITVTANGEVIATATLTVTLPPPPVEKEVLDANGNKRTVRYDAKTGKAEVFDSA [r9_343_TrROS_Hall] | 0.106 ± 0.17 kcal/mol | 0.065 ± 0.29 kcal/mol | 0.0728 ± 0.47 kcal/mol
27 | SAGGSAGGSAGKKIPFGKNVKILEIEEIDPDIIIIKFENSVFIVRILPNGEVKVIKFDIDSAGGSAGGSAGG [r11_612_TrMRF] | 1.83 ± 0.042 kcal/mol | 2.4 ± 0.027 kcal/mol | 2.33 ± 0.09 kcal/mol
28 | SAGGIDLSKLPKNSIVVITKVKVYPTKVGEPDGEGEGYVEVELRVFRNIPPTGKILSSPLPVKFKIASAGGS [r8_486_TrMRF] | 1.19 ± 0.04 kcal/mol | 0.987 ± 0.25 kcal/mol | 1.17 ± 0.12 kcal/mol
29 | SEPRYHVEIRLPVLLVVPPELLEPDPERDSYRLPEDDLPVHPDAVIPREVTFSGPMTAEEVVRRTLALLSSA [r9_165_TrMRF] | 0.455 ± 0.11 kcal/mol | 1.38 ± 0.13 kcal/mol | 1.04 ± 0.085 kcal/mol
30 | SAGGPDIKIKWKIEVNPDNGMIWLTMEIEVPNPNGDFYKVRADIYIPIVNPDDGKFPIFIMLEVEPVPSAGG [r13_715_TrROS] | 3.36 ± 0.3 kcal/mol | 4.74 ± 0.25 kcal/mol | 4.76 ± 0.2 kcal/mol
31 | SAGGSMRFKIEDINIGIIPHPPGWLLIPITVKVKFEEPDPDNGEPKTVEHEFPIMIMMPKDDLDDLSAGGSA [r2_184_TrROS] | 2.01 ± 0.072 kcal/mol | 2.68 ± 0.045 kcal/mol | 2.44 ± 0.14 kcal/mol
32 | SAGGSAGGDVVIIPEPSEEDKMIFTIVADGEEAPVVLTVEADNLADVVDFLKEHGLAAGHPDDGSAGGSAGG [r6_40_TrMRF] | 0.713 ± 0.065 kcal/mol | 0.637 ± 0.052 kcal/mol | 0.679 ± 0.11 kcal/mol
33 | SAGGMLTLIDPETGEPFLTTPIATFTVPVTLTGPDGKPLETRTLRITLFRAYRPDGSPALILLVSPESAGGS [r8_214_TrMRF] | 3.7 ± 0.083 kcal/mol | 4.73 ± 0.061 kcal/mol | 4.3 ± 0.052 kcal/mol
34 | SAGFKIDDVETEKDPDGEKEITFRYVDPGDGRPWMLNLRINPNGKLTEENPVPFDDFPPGSYWTIRIKSAGG [r19_393_TrROS] | 0.636 ± 0.14 kcal/mol | -0.0517 ± 0.41 kcal/mol | 0.402 ± 0.18 kcal/mol
35 | SAMKITIEEVEVKEGDTVTIRIDASEEELENFLKELAEKLGAEVVEVEVKKNENGSLEVTVKVKEVKKPSAG [r14_655_TrROS_Hall] | 1.2 ± 0.11 kcal/mol | 0.476 ± 0.13 kcal/mol | 1.04 ± 0.17 kcal/mol
36 | SAGGSMIFETLGSEKLIKEKAEERGLDLVEYSVEGNKFFALLKDPAGKLVLTYSDEASVKKLGLDLSKLSAG [r5_12_JUSTAS] | -0.265 ± 0.095 kcal/mol | 0.523 ± 0.08 kcal/mol | 0.299 ± 0.081 kcal/mol
37 | SAGGSASLESEDVEEVSTSTSVVPLPDGGTATVTTTTYRHKEPGTLVTRTTTTFPGGATTTTVTLLSAGGSA [r15_188_JUSTAS] | 1.69 ± 0.039 kcal/mol | 2.04 ± 0.022 kcal/mol | 1.91 ± 0.025 kcal/mol
38 | SAGGSAGGMKITIEKLDPEKGVYLLTVKPPGPGKTLVIELPVEKEEEALAFAKKLEELGYEVENSAGGSAGG [r6_796_TrMRF] | 1.02 ± 0.02 kcal/mol | 1.57 ± 0.12 kcal/mol | 1.34 ± 0.13 kcal/mol
39 | SAGGSAGGSPNPKNVKIYLVALDPDKPEVVAEASFNITVDTEEELEAILKELVPLFPGAKVFASAGGSAGGS [r12_1043_TrMRF] | 0.853 ± 0.086 kcal/mol | 1.25 ± 0.12 kcal/mol | 1.13 ± 0.1 kcal/mol
40 | SAGGGFDPSKLKKEKTLTLTLPGNSETFTIELYLPEDGESTVVFSYNDKNYELTITKDSITLKPVSSSAGGS [r16_711_JUSTAS] | 2.38 ± 0.13 kcal/mol | 3.01 ± 0.045 kcal/mol | 2.79 ± 0.2 kcal/mol
41 | SAGFQIERKRDPDGKYEVEIKFPHPDGHPMRVKIPINPKEGKIKIDEIESTNPGHKQRMEELARWFLKASAG [r5_266_TrROS] | -0.4 ± 0.29 kcal/mol | -0.526 ± 0.38 kcal/mol | -0.44 ± 0.16 kcal/mol
42 | SAGGDPDGKPKIEIKIKDINVEPDPDNGYYRATIKIRFPNGREINFDIPMPPGQTAEQVKEQAREMIQSAGG [r13_578_TrROS] | 1.77 ± 0.025 kcal/mol | 1.24 ± 0.095 kcal/mol | 1.45 ± 0.17 kcal/mol

From the supplement of paper PMC12764529
